B1: antizyme-mRuby2 (antizyme with a C-terminal mRuby2 tag) (natural protein)
chain: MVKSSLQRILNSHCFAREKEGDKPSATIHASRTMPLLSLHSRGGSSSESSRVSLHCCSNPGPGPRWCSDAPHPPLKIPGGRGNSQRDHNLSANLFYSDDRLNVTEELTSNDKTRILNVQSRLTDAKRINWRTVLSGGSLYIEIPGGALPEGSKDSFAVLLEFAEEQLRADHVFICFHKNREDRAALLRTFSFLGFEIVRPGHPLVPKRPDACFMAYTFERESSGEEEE

Columns and labels:
Assay in all cases: FRET
[1] = target: B1
[2] = target: antizyme with an N-terminal mRuby2 tag (human, UniProt P54368 1-228)
Clover-AZIN A325N = Clover-AZIN A325N (human, UniProt O14977 1-448, A325N)

antizyme with an N-terminal mRuby2 tag, sequence (P54368 whole entry): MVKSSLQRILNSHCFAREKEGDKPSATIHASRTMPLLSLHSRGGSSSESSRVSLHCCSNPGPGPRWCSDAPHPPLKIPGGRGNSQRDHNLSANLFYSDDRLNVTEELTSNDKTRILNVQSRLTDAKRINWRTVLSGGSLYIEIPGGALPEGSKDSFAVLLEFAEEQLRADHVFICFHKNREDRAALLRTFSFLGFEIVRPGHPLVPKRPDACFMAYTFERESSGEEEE

| Binder | Kd [1] [nM] | Kd [2] [nM] | Kd (Clover-AZIN A325N) [nM] |
| --- | --- | --- | --- |
| AZIN with a C-terminal Clover (GFP) tag (natural protein) MKGFIDDANYSVGLLDEGTNLGNVIDNYVYEHTLTGKNAFFVGDLGKIVKKHSQWQNVVAQIKPFYTVKCNSAPAVLEILAALGTGFACSSKNEMALVQELGVPPENIIYISPCKQVSQIKYAAKVGVNILTCDNEIELKKIARNHPNAKVLLHIATEDNIGGEEGNMKFGTTLKNCRHLLECAKELDVQIIGVKFHVSSACKESQVYVHALSDARCVFDMAGEIGFTMNMLDIGGGFTGTEFQLEEVNHVISPLLDIYFPEGSGVKIISEPGSYYVSSAFTLAVNIIAKKVVENDKFPSGVEKTGSDEPAFMYYMNDGVYGSFASKLSEDLNTIPEVHKKYKEDEPLFTSSLWGPSCDELDQIVESCLLPELNVGDWLIFDNMGADSFHEPSAFNDFQRPAIYYMMSFSDWYEMQDAGITSDSMMKNFFFVPSCIQLSQEDSFSAEA | 29 | 89 |  |
| Clover-AZIN (antizyme inhibitor with an N-terminal Clover tag) (natural protein) MKGFIDDANYSVGLLDEGTNLGNVIDNYVYEHTLTGKNAFFVGDLGKIVKKHSQWQNVVAQIKPFYTVKCNSAPAVLEILAALGTGFACSSKNEMALVQELGVPPENIIYISPCKQVSQIKYAAKVGVNILTCDNEIELKKIARNHPNAKVLLHIATEDNIGGEEGNMKFGTTLKNCRHLLECAKELDVQIIGVKFHVSSACKESQVYVHALSDARCVFDMAGEIGFTMNMLDIGGGFTGTEFQLEEVNHVISPLLDIYFPEGSGVKIISEPGSYYVSSAFTLAVNIIAKKVVENDKFPSGVEKTGSDEPAFMYYMNDGVYGSFASKLSEDLNTIPEVHKKYKEDEPLFTSSLWGPSCDELDQIVESCLLPELNVGDWLIFDNMGADSFHEPSAFNDFQRPAIYYMMSFSDWYEMQDAGITSDSMMKNFFFVPSCIQLSQEDSFSAEA |  | 80 |  |
| B1 |  |  | 35.6 |

From paper PMC6420652 (2019)
